Test results from patent US20080188404.

B1: human factor I (protein)
chain: KVTYTSQEDLVEKKCLAKKYTHLSCDKVFCQPWQRCIEGTCVCKLPYQCPKNGTAVCATNRRSFPTYCQQKSLECLHPGTKFLNNGTCTAEGKFSVSLKHGNTDSEGIVEVKLVDQDKTMFICKSSWSMREANVACLDLGFQQGADTQRRFKLSDLSINSTECLHVHCRGLETSLAECTFTKRRTMGYQDFADVVCYTQKADSPMDDFFQCVNGKYISQMKACDGINDCGDQSDELCCKACQGKGFHCKSGVCIPSQYQCNGEVDCITGEDEVGCAGFASVTQEETEILTADMDAERRRIKSLLPKLSCGVKNRMHIRRKRIVGGKRAQLGDLPWQVAIKDASGITCGGIYIGGCWILTAAHCLRASKTHRYQIWTTVVDWIHPDLKRIVIEYVDRIIFHENYNAGTYQNDIALIEMKKDGNKKDCELPRSIPACVPWSPYLFQPNDTCIVSGWGREKDNERVFSLQWGEVKLISNCSKFYGNRFYEKEMECAGTYDGSIDACKGDSGGPLVCMDANNVTYVWGVVSWGENCGKPEFPGVYTKVANYFDWISYHVGRPFISQYNV
Hybrid protein DAF-CR1B
  cofactor assay: factor I cleavage of C3b, Western blot: DAF-CR1B acts as cofactor for factor I as shown by the appearance of a band at 29 kDa
Hybrid protein DAF-MCP
  cofactor assay: factor I cleavage of C3b, SDS-PAGE and Western blot with anti-human C3 polyclonal antibody: Supernatants with factor I and either DAF-MCP or DAF-CR1BB both exhibited 43 and 40 kDa bands corresponding to formation of iC3b and C3c, respectively
